Measurements taken from CN115607664A (GENOR BIOPHARMA CO LTD, dated 2023).

Molecular target: T1, PD-1 (UniProt Q15116 25-288, limits assumed)
T1 construct: whole, on cells; also called Jurkat/PD-1细胞表面的PD-1
Experiment: Jurkat/PD-1 + CHO/PD-L1 NFAT-luciferase reporter blocking assay

T1 sequence (Q15116 25-288 limits assumed): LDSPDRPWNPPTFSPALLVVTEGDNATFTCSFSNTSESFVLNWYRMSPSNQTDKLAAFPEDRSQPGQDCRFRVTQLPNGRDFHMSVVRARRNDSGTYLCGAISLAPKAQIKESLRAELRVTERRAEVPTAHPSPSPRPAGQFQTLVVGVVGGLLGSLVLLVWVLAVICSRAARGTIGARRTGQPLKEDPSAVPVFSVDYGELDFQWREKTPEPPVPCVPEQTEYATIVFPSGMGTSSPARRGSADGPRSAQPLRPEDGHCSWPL

B1: G-Ab1 (antibody, human IgG4 S228P, kappa, V domains shown)
VH: QIQLVQSGSELKKPGASVKVSCKASGYTFTNFGMNWVRQAPGQGLKWMGWISGYTREPTYAADFKGRFVISLDTSVSTAYLQISSLKAEDTAVYYCARDVFDYWGQGTLVTVSS
VL: DIVLTQSPASLAVSPGQRATITCRASESVDNYGYSFMNWFQQKPGQPPKLLIYRASNLESGVPARFSGSGSRTDFTLTINPVEADDTANYYCQQSNADPTFGQGTKLEIKR
notes: An IgG4 isotype control was used alongside it; also called 抗PD-1抗体; G-Ab1抗体
  binding result: binds
